Assay [1] concerns the target Recombinant HIV-1 gp120 (LAV, CXCR4 monotropic, identical to NL4-3 gp120, glycosylated) (HIV-1 (LAV; identical to NL4-3 gp120)) (UniProt P03377).
Assay [2] has as its target gp41 (ARP671, spanning the entire extracellular domain of HIV-1 gp41MN) (HIV-1 (MN)) (UniProt P05877). Kind of assay: SPR; gp41 immobilised on a biosensor; data not shown. On the technique in general: SPR reads the build-up and loss of mass on a sensor chip optically.
UniProt P05877, sequence (P05877 32-685): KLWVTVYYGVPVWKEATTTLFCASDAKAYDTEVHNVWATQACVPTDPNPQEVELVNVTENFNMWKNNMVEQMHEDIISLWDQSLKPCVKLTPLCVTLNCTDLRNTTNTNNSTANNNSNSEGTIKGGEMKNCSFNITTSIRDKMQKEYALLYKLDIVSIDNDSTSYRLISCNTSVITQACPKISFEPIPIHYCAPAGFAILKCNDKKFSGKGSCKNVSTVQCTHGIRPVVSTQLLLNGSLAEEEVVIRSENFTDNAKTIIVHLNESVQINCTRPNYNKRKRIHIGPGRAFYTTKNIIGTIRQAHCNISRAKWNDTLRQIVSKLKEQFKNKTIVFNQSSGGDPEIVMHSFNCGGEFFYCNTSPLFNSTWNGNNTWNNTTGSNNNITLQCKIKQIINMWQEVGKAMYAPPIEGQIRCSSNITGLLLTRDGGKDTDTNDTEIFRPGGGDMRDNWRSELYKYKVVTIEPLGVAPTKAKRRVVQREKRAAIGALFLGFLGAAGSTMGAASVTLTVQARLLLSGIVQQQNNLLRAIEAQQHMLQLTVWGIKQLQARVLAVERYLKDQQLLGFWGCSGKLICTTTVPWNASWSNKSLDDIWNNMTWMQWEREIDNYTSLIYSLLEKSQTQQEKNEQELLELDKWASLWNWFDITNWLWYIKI

As for “HOCl-modified bovine serum albumin (protein:HOCl molar ratio 1:1000) (from UniProt P02769 25-607)”, the neutralisation of HIV-1 NL4-3 infection, p24 antigen ELISA on day 5, dose-dependent, value at 20 μg/ml in assay [1] is more than 90%. Besides, in assay [2], the response units was less than 5 RU.
On to “HOCl-modified human serum albumin (protein:HOCl molar ratio 1:1000) (from UniProt P02768 25-609)”, for which the neutralisation of HIV-1 NL4-3 infection, p24 antigen ELISA on day 5, dose-dependent, value at 20 μg/ml in assay [1] is more than 95%. Moreover, in assay [2], the response units is less than 5 RU.
In the case of “HOCl-modified mouse serum albumin (protein:HOCl molar ratio 1:1000) (from UniProt P07724 25-608)”, the neutralisation of HIV-1 NL4-3 infection, p24 antigen ELISA on day 5, value at 50 μg/ml in assay [1] was more than 90%. Further, the response units in assay [2] was less than 5 RU.

Values taken from PMC2887905.
